Data taken from doi:10.1101/2020.11.19.389429.

Molecular target: CHD7 full length WT (UniProt Q9P2D1)
Assay: single-molecule PIFE/smFRET

Chain of UniProt Q9P2D1 (Q9P2D1 whole entry): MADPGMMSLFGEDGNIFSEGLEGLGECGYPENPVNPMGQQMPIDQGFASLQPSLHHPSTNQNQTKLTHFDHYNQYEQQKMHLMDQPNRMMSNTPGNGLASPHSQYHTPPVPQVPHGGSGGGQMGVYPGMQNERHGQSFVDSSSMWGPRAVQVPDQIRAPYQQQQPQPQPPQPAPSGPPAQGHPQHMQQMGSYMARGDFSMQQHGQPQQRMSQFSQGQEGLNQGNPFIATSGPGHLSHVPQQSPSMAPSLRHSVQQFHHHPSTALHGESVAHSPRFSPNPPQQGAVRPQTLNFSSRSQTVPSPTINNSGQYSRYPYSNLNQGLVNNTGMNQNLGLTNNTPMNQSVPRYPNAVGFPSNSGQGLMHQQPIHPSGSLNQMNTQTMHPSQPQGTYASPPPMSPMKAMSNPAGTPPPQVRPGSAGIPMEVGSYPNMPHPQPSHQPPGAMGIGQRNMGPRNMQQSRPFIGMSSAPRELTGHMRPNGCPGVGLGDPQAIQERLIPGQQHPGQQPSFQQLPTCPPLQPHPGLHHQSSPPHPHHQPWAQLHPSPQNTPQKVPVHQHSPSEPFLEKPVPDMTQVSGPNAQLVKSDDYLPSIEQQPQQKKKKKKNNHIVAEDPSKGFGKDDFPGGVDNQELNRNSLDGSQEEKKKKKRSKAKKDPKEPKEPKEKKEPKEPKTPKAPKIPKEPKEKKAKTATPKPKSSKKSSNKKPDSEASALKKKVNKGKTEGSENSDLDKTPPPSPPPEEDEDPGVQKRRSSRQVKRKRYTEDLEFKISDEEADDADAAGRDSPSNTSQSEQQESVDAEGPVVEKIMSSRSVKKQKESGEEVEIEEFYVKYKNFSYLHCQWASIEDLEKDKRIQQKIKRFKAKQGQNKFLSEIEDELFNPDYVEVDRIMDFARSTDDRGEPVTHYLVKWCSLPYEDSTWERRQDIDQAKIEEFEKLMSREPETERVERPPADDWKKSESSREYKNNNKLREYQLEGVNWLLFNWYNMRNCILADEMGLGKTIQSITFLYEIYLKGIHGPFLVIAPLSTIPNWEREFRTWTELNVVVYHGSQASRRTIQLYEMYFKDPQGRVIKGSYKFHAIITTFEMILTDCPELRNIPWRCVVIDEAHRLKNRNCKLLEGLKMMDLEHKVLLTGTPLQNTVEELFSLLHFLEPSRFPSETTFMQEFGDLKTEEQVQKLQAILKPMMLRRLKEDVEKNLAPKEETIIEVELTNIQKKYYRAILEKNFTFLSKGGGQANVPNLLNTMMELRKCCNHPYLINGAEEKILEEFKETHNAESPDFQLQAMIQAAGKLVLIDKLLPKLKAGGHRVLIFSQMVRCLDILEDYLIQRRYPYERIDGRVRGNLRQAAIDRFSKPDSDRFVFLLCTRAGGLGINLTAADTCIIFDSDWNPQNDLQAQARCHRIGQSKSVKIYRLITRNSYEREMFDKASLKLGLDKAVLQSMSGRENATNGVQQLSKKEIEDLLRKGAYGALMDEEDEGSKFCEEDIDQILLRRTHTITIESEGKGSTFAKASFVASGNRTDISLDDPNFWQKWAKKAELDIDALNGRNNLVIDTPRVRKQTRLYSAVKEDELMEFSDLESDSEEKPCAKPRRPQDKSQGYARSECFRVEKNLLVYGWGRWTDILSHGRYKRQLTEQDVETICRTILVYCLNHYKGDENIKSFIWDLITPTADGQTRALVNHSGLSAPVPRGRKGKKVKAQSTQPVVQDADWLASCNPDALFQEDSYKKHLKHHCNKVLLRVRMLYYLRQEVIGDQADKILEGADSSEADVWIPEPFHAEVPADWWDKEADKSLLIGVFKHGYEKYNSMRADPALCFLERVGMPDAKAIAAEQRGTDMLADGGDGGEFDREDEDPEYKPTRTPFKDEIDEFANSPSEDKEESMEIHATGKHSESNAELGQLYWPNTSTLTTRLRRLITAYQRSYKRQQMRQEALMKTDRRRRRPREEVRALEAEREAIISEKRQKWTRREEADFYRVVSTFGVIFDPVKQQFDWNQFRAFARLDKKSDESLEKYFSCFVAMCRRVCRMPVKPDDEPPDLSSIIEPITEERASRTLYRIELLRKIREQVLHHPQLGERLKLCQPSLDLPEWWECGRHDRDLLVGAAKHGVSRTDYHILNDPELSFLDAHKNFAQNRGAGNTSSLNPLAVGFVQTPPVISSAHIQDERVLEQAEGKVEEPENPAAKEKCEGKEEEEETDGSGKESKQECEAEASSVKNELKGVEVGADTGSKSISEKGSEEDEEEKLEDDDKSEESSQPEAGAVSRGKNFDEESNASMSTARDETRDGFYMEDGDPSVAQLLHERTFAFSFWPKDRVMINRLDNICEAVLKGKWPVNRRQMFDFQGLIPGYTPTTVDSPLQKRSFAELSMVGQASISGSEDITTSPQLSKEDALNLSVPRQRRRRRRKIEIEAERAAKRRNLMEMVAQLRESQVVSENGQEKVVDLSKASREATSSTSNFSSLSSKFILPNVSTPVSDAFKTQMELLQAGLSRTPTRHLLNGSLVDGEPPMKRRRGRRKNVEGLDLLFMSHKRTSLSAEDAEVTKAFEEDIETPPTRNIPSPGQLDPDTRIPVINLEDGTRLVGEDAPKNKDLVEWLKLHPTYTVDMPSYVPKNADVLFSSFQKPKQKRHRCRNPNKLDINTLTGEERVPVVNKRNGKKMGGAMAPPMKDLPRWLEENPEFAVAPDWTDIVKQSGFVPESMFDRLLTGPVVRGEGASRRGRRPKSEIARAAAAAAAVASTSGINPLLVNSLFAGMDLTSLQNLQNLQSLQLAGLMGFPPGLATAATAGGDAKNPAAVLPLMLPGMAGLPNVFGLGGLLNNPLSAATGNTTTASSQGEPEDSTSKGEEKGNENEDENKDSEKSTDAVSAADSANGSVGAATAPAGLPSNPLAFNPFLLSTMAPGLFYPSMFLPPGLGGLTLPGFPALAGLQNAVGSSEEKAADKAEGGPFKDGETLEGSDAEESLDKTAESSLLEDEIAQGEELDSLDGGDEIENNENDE

“GCCCTGGAGAATCCCGGTCTGCAGGCCGCTCAATTGGTCGTAGACAGCTCTAGCACCGCTTAAACGCACGTACGCGCTGTCCCCCGCGTTTTAACCGCCAAGGGGATTACTCCCTAGTCTCCAGGCACGTGTCAGATATATACATCCTGTGCATGTATTGAACAGCGACCTTGCCGGTGCCAGTCGGATAGTGTTCCGAGCTCCCACTCTAGAGGATCCCCGGGTACC (double strand) [smFRET 601 nucleosome, 3 bp exit linker, 78 bp entry linker]” gave a binding signal (% of nucleosomes with PIFE) of 76.5.
